This is an account of results in publication PMC10023680 (2023).

B1: GST-tagged ELMO1-RBD (residues 1-113), wild-type [human] / RhoG (residues 1-184) [human] (parent complex)
chain 1: MPPPADIVKVAIEWPGAYPKLMEIDQKKPLSAIIKEVCDGWSLANHEYFALQHADSSNFYITEKNRNEIKNGTILRLTTSPAQNAQQLHERIQSSSMDAKLEALKDLASLSRD
chain 2: not shown

The first assay covers variants of B1. The experiment in a line: SPR; read at the highest RhoG concentration, about 35 µM; RhoG in the active GTPγS-bound form; read off a plot.
chain 1 Y18A: the response was around 59%.
In the case of chain 1 N58A, the response was around 78%.
Take chain 1 L21A: the response is around 18%.
On to chain 1 K20E, for which the response was around 64%.
Take chain 1 E13A: the response was around 46%.
Regarding chain 1 K9A, the response is around 0%.

Variants of B1 are the subject of another assay. The assay can be described thus: SPR; RhoG in the active GTPγS-bound form; n = 3 independent experiments.
As to chain 1 N58A, the Kd (in general, the constant that tells how readily two partners part at equilibrium) is 10 µM.
chain 1 L21A: the Kd is 163 µM.
As to chain 1 E13A, the dissociation constant (Kd) worked out at 44.3 µM.
